This passage reports Kd, koff and kon results from paper PMC10315472.

Assay [1] addresses AMSIN (actinomyces). Put plainly: SPR. Background: Surface plasmon resonance follows binding to a sensor surface in real time, without labels.
Assay [2] concerns the target emorisin (Emergomyces orientalis). Put plainly: SPR.

In assay [1], “αRBD (from UniProt P0DTC2) (domain or fragment)” yielded a Kd of 37.4 nM.

For the substance “Spike protein of the SARS-CoV-2 Omicron variant (from UniProt P0DTC2) (natural protein)”, in assay [1], the Kd was found to be 57.9 nM.

“βRBD (from UniProt P0DTC2 319-541) (domain or fragment)”: in assay [1], the Kd is 310 nM, the koff was 0.00536 s⁻¹ and the kon stood at 17300 M⁻¹ s⁻¹. In assay [2], the Kd turned out to be 49.5 nM, the koff is 0.00561 s⁻¹ and the kon was found to be 11400 M⁻¹ s⁻¹.

In turn, “ζRBD (from UniProt P0DTC2) (domain or fragment)” came in with a Kd in assay [1] of 1450 nM.

In assay [1], “γRBD (from UniProt P0DTC2 319-541) (domain or fragment)” registered a Kd of 607 nM, a koff of 0.00545 s⁻¹ and an on-rate constant (kon) of 8970 M⁻¹ s⁻¹.

Turning to “δRBD (from UniProt P0DTC2 319-541) (domain or fragment)”, in assay [1], the Kd was found to be 76.6 nM, the dissociation rate constant (koff) came to 0.0038 s⁻¹ and the kon is 49600 M⁻¹ s⁻¹. Further, in assay [2], the Kd came out at 31.6 nM, the koff came out at 0.00202 s⁻¹ and the kon was found to be 64000 M⁻¹ s⁻¹.

As a reminder, the Kd is the free concentration of one partner at which half of the binding sites on the other are occupied at equilibrium, for simple one-to-one binding. A high value points to weaker binding. The koff is a measure of how fast the partners let go of each other. One may read the kon as the rate constant with which the complex forms. A high value points to faster complex formation.
